Data: article PMC7812869
Values joined by “and” are separate entries in the source; they are usually repeats but may differ in a detail not shown here. Identical values can stand only once.

Target: 80S-like ribosomes (yeast | yeast (endogenous in the yeast strain)) (UniProt Q07381)
Assay: co-sedimentation

UniProt Q07381, sequence (Q07381 whole entry, looked up): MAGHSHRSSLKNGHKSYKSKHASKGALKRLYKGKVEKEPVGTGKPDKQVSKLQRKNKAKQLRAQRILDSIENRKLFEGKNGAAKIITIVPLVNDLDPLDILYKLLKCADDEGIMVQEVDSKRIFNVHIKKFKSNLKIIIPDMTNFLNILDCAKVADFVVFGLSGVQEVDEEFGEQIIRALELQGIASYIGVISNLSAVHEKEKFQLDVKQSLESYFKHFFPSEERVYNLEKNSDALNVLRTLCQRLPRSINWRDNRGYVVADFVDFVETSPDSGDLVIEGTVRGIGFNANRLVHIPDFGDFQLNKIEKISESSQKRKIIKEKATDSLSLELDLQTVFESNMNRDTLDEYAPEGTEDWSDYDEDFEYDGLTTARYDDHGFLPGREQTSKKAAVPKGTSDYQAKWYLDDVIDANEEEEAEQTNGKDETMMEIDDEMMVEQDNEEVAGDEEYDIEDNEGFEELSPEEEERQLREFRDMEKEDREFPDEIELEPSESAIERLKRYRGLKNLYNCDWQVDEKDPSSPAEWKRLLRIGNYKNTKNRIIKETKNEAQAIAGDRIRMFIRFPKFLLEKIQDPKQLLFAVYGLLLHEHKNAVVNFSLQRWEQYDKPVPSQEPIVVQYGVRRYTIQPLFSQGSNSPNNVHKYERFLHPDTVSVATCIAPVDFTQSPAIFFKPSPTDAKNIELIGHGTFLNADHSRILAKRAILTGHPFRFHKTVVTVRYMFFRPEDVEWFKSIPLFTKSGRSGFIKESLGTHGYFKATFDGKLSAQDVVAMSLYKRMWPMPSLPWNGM

fold change of bound Fap7 against Fap7 alone: 2 fold and 3 fold
Substance: Fap7+SUMO-Rps14 complex (from UniProt Q12055 1-197)
